For assay [1], the target named is VEGF (vascular endothelial growth factor) (UniProt P15692-4 27-191, limits assumed). The assay is described as follows: cell-based or functional assay.
For another assay, the target named is T1, VEGF165 (UniProt P15692-4 27-191).
T1 construct: P15692 is the human VEGFA entry; VEGF165 is one isoform of that entry; also called VEGFA isoform 165
The assay is described as follows: in vitro binding; method not stated.

Results on 1 molecule are retold here after patent WO2015086830A1 (dated 2015).

VEGF (vascular endothelial growth factor), sequence (P15692 other isoform, or with tags, fused parts or gaps limits assumed): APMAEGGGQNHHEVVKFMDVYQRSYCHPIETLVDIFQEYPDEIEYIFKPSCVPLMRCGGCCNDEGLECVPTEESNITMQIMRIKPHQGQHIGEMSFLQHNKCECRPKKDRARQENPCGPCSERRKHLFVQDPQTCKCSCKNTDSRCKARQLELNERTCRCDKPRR
T1 sequence (P15692 other isoform, or with tags, fused parts or gaps limits assumed): as above

B1: scFv3, anti-VEGF-scFv comprising SEQ ID No.: 3 (scFv)
scFv: EIVMTQSPSTLSASVGDRVIITCQASEIIHSWLAWYQQKPGKAPKLLIYLASTLASGVPSRFSGSGSGAEFTLTISSLQPDDFATYYCQNVYLASTNGANFGQGTKLTVLGGGGGSGGGGSGGGGSGGGGSEVQLVESGGGLVQPGGSLRLSCTASGFSLTDYYYMTWVRQAPGKGLEWVGFIDPDDDPYYATWAKGRFTISRDNSKNTLYLQMNSLRAEDTAVYYCAGGDHNSGWGLDIWGQGTLVTVSS
notes: About 26.3 kDa
The term Kd denotes the free concentration of one partner at which half of the binding sites on the other are occupied at equilibrium, for simple one-to-one binding. A high value points to weaker binding. For B1, the “VEGF induced HUVEC proliferation, IC50” value in assay [1] came to 0.19 nM. This molecule also displayed a Kd in the assay with VEGF165 of 0.0284 nM.
